Source: IntAct's records for PubMed 18376416

B1: Protein XRP2 (Homo sapiens), O75695 (parent)
chain: MGCFFSKRRKADKESRPENEEERPKQYSWDQREKVDPKDYMFSGLKDETVGRLPGTVAGQQFLIQDCENCNIYIFDHSATVTIDDCTNCIIFLGPVKGSVFFRNCRDCKCTLACQQFRVRDCRKLEVFLCCATQPIIESSSNIKFGCFQWYYPELAFQFKDAGLSIFNNTWSNIHDFTPVSGELNWSLLPEDAVVQDYVPIPTTEELKAVRVSTEANRSIVPISRGQRQKSSDESCLVVLFAGDYTIANARKLIDEMVGKGFFLVQTKEVSMKAEDAQRVFREKAPDFLPLLNKGPVIALEFNGDGAVEVCQLIVNEIFNGTKMFVSESKETASGDVDSFYNFADIQMGI

Variants of: B1
Details: with arl3_mouse Arl3, Q9WUL7
Chain of arl3_mouse Arl3, Q9WUL7 (Q9WUL7 whole entry): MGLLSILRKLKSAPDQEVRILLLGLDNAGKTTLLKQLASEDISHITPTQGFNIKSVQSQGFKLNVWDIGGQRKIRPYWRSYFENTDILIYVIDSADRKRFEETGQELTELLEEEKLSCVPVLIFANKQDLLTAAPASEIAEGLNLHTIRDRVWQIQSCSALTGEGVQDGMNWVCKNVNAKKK

Variant | effect of a mutation on the interaction
Q116A | decreasing interaction
R118A | decreasing interaction
E138G | decreasing interaction
F177A | decreasing interaction

Variants of: B1
Details: with arl3_mouse Arl3, Q9WUL7
Remark: another data set of the same source

Variant | effect of a mutation on the interaction
S28A;W29A | decreasing interaction
Q115A | decreasing interaction
R118H | decreasing interaction
R120H;D121S | decreasing interaction
